From US20130259876A1 (Regeneron, published 2013)
Where a chain is given by its changes, count along the chain named.

B1: H4H2560P (antibody, V domains shown)
VH: QVQLVQSGAEVKKPGASVKVSCKASGYTFTGYFIHWVRQAPGQGLEWVGWINPTSGGTNYAQKFQGRVTMTRDTSISTAYMEMNSLRSDDTAVYYCARKAGYTSTWFDYWGQGTTVTVSS
VL: DIVMTQSPDSLTVSLGERATINCKSSQSVLYSSKNKNYLAWYQQKPGQPPNLLVYWASTRESGVPDRFSGSGSGTDFTLTISSLQAEDVAVYYCQQYYSMITFGQGTRLEIK
B2: H4H2532P (antibody, V domains shown)
VH: QVQLVQSGTEVKKPGAAVRVSCKASGYTFTDYHMHWVRQAPGQGLEWMGWINPNSGGTNSAQKFQGRVTMTRDTSISTAYMELNGLRSDDTAVYYCARKAGYTSSWFDYWGQGTTVTVSS
VL: not shown
B3: H4H2538P (antibody, V domains shown)
VH: B2 VH with T9A, A17S, R19K, H33Y, M48I, T58S, S60F, N84S, G85R, T115L
VL: B1 VL with T12A, S33F, K34N, A40S, N51K, V54I, V89A
B4: H4H2555P (antibody, V domains shown)
VH: B2 VH with T9A, R19K, Y102F, Y109H
VL: not shown
B5: H4H2559P (antibody, V domains shown)
VH: B1 VH with G31D, I34L, T54N, Y60F, E82D, M83L, N84S, S85R, T105S, T115L
VL: B1 VL with T12A, V29I, S33F, K34N, P46I, N51M, V54I, S83R, M100S
B6: H4H2534S (antibody, V domains shown)
VH: EVQLVESGPGLVKPAQTLSLTCTVSGGSINSGGNYWSWIRQHPGKGLEWIGYIYYSGNTYYNPSLKSRVTISVDMSKNQFSLKLRSVTAADTAVYFCARDPRGITGTHHFDCWGQGTLVTVSS
VL: EIVLTQSPGTLSLSPGERATLSCRTSQSVSSRYLAWYQQKPGQAPRLLIYDASSRATGIPDRFSGSGSGTDFTLTISRLEPEDFAVYYCQQFGPSLFTFGPGTKVDIK
B7: H4H2542P (antibody, V domains shown)
VH: EVQLVESGGGLVQPGRSLRLSCAASGFTFDDYAMHWVRQGPGKGLEWVSGISWNGRTMDHADSVKGRFTISRDNAKNSLYLQMNSLRNDDTGVYFCAKEGIPVAGTYFHFYGMDVWGQGTTVTVSS
VL: EIVMTQSPATLSVSPGERVTLSCRASQSIGNYLAWYQQKPGQAPRLLIYGTSTRATGIPARFSGSGSGTEFTLTFSSLQSEDFAVYYCQQYNHWPLTFGGGTKVEIK
B8: H4H2477N2 (antibody, V domains shown)
VH: QVQLQQWGAGLLKPSETLSLTCAVYGGSFSDYYWSWIRQPPGKGLEWIGEINHRGNTNYNPSLKSRVTISVDTSKNQFSLKLRSVTAADMAVYYCARIQLWLRGYDYYGMDVWGQGTTVTVSS
VL: DIQMTQSPSSLSASVGDRVTITCRASQGIRNDLGWYQQKPGKAPKRLIYAASSLQGGVPSRFSGSGSGTEFSLTISSLQPEDFASYYCLQHNTYPWTFGQGTKVEIK
B9: H4H2564S (antibody, V domains shown)
VH: EVQLVESGGGLVQPGGSLRLSCAASGITFSSFVMNWVRQAPGKGLEWVSVISGSGGSTYYADSVKGRFTISRDNSKNTLYLQMNSLRAEDTAVYYCAKGGLRWFPFDYWGQGTLVTVSS
VL: not shown
B10: H4H2490N2 (antibody, V domains shown)
VH: QVQLVQSGADVKWPGASVKVSCRASGYTFTGYYMHWVRQAPGQGLEWMGWINPNNGGTNYAQKFQGRVTMTRDTSITTVYMELSSLISDDTAVYYCARGEDLELRNYYYYGMDVWGQGTSVTVSS
VL: DIQMTQSPSSLSASVGDRVTITCRASQSISSYLNWYQQKPGKAPKLLIYAASNLQSGVPSRFSGSGFGTDFTLTISSLQSEDFATYYCQQTYSTRTFGRGTKVEIK
B11: H4H2562S (antibody, V domains shown)
VH: EVQLVESGGGLVQPGGSLRLSCAASGFTFTNYAMTWVRQAPGKGLEWVSTISGTGVDITYYADSVKGRFTISRDNSKNTLYLQMNSLRAEDTAVYYCAKGGLRWFPFDYWGQGTTVTVSS
VL: not shown
B12: H4H2526P (antibody, V domains shown)
VH: QVQLVESGGGVVQPGRSLRLSCAASGFTFSRFGMDWVRQAPGKGLEWVAVISYDGKNKLYADSVKGRFTISRDNSKNTLYMQMNSLRAEDTAVYYCAKEGDNWNFVGDSWGQGTLVTVSS
VL: DIQMTQSPSSVSASVGDRVTITCRASQDISARLAWYQQKPGKAPKLLIYAASSLQSGVPSRFSGSGSGTDFTLTISSLEPEDFATYYCQQADSFPYTLGQGTKLEIK
B13: H4H2528P (antibody, V domains shown)
VH: B12 VH with M81L
VL: B12 VL with D28G, D70Y, S77N, E79Q, D92N
B14: H4H2499N (antibody, V domains shown)
VH: QVQLVESGGGLVKPGGSLRLSCAASGFTFSDYYMSWIRQAPGKGLEWVSYISTSGSTIYYPDSVKGRFTISRDNAKNSLNLQMNSLRAEDTAVYYCLLHYYYGMDVWGQGTTVTVSS
VL: EIVLTQSPATLSLSPGERAPLSCRASQSVSSYLAWYQQKPGQPPRLLIYDASNRATGIPARFSGSGSGTDFTLTISSLEPEDFAVYYCQQRSNWPWTFGQGTKVEIK
B15: H4H2477N (antibody, V domains shown)
VH: B8 VH with R54S
VL: B8 VL
B16: H4H2490N (antibody, V domains shown)
VH: B10 VH
VL: B10 VL with K106N

Biological target: T1, scHLA-B27-mmH (engineered HLA-B*27 ectodomain in-line fusion protein) (human (HLA-B*2705, beta-2 …))
T1 construct: also called soluble HLA-B*27 fusion protein
Test: SPR (Biacore), 25 C, PBS pH 7.2

Binder | Kd
B1 | 1.25 nM
B2 | 0.457 nM
B3 | 0.37 nM
B4 | 0.491 nM
B5 | 0.434 nM
B6 | 2.13 nM
B7 | 52.1 nM
B8 | 44 nM
B9 | 8.84 nM
B10 | 239 nM
B11 | 30.5 nM
B12 | 0.76 nM
B13 | 2.71 nM

Biological target: T1, scHLA-B27-mmH (engineered HLA-B*27 …)
Test: SPR (Biacore), 25 C, PBS pH 5.75

Binder | Kd
B1 | 7.7 nM
B2 | 0.717 nM
B3 | 0.641 nM
B4 | 0.855 nM
B6 | 53.4 nM
B7 | 488 nM
B8 | 160 nM
B9 | 74.8 nM
B10 | 237 nM
B11 | 95 nM
B12 | 0.739 nM
B13 | 2.74 nM

Biological target: T1, scHLA-B27-mmH (engineered HLA-B*27 …)
Test: SPR (Biacore), mAb captured, 25 C, PBS pH 5.75

Binder | Kd | t1/2
B1 | 7.7 nM | 6 min
B2 | 0.717 nM | 36 min
B3 | 0.641 nM | 44 min
B4 | 0.855 nM | 31 min
B5 |  | 43 min
B6 | 53.4 nM | 5 min
B7 | 488 nM | 1 min
B8 | 160 nM | 5 min
B9 | 74.8 nM | 3 min
B10 | 237 nM | 2 min
B11 | 95 nM | 2 min
B12 | 0.739 nM | 301 min
B13 | 2.74 nM | 135 min

Biological target: T1, scHLA-B27-mmH (engineered HLA-B*27 …)
Test: SPR (Biacore), mAb captured, 25 C, PBS pH 7.2

Binder | Kd | t1/2
B1 | 1.25 nM | 16 min
B2 | 0.457 nM | 52 min
B3 | 0.37 nM | 69 min
B4 | 0.491 nM | 47 min
B5 | 0.434 nM | 65 min
B6 | 2.13 nM | 16 min
B7 | 52.1 nM | 2 min
B8 | 44 nM | 20 min
B9 | 8.84 nM | 20 min
B10 | 239 nM | 2 min
B11 | 30.5 nM | 4 min
B12 | 0.76 nM | 348 min
B13 | 2.71 nM | 151 min

Biological target: T1, scHLA-B27-mmH (engineered HLA-B*27 …)
Test: SPR (Biacore), mAb captured, 37 C, HBST pH 7.4

Binder | Kd | t1/2
B1 | 1.96 nM | 4 min
B2 | 0.837 nM | 9 min
B3 | 1.13 nM | 8 min
B4 | 1.02 nM | 7 min
B5 | 1.18 nM | 8 min
B6 | 8.7 nM | 3 min
B7 | 170 nM | 2 min
B8 | 47 nM | 3 min
B9 | 7.17 nM | 9 min
B14 | 28 nM | 4 min
B10 | 360 nM | 1 min
B11 | 7.63 nM | 4 min
B12 | 3.91 nM | 37 min
B13 | 20.4 nM | 17 min

Biological target: T1, scHLA-B27-mmH (engineered HLA-B*27 …)
Test: SPR (Biacore), mAb captured, 25 C, HBST pH 7.4

Binder | Kd | t1/2 | binding result
B1 | 1.47 nM | 6 min | 
B2 | 0.452 nM | 21 min | 
B3 | 0.604 nM | 20 min | 
B4 | 0.521 nM | 18 min | 
B5 | 0.895 nM | 19 min | 
B6 | 5.18 nM | 6 min | 
B7 | 58 nM | 2 min | 
B8 | 16.9 nM | 11 min | 
B15 |  |  | no binding
B9 | 3.57 nM | 19 min | 
B14 | 21.3 nM | 7 min | 
B10 | 259 nM | 1 min | 
B16 | 9.97 nM | 33 min | 
B11 | 10 nM | 5 min | 
B12 | 2.08 nM | 96 min | 
B13 | 6 nM | 77 min | 
